Assay results as given in the domain aggregation screens of Martell et al. (2025).

Test: soluble fraction after stress (log2 fold change); higher = more stays soluble; pooled small domains, quantitative proteomics
Conditions: stress: pH 4
In short: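 After pH 4 stress, pooled custom libraries of small protein domains were quantified with high-throughput quantitative proteomics. Aggregation propensity is taken from the fold change in each domain's soluble amount following the acid stress. The scale is log2, where higher values mean more stayed soluble.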
With “HMSDGYETLVNMAKPFLNNSKQITENDITDAVNTVSVMLKKRYDMTDEDIRKAVSELLHFYA” the “soluble fraction (log2)” value was -0.791. With “HMIDRPLTLVEDYERFAGELAKITLRFMLDGRKRFNGRLAGFDEDGKIVLETSFGRFAFSFDEIDSARI” the “soluble fraction (log2)” value was -2.08. For “HMRQNPESFLNHKVKKNESLESLTKKYELTENEIIFYNPLIQKIGLKKRMILKIPIYNNQNLVTKSVD”, the “soluble fraction (log2)” value was -0.161. With “HMRHLSVPNRQVEGALDHIRSQGWLAEGMRVFASEDGSARLIPLGPGAPLEMLEPLAKFDVISHEGKPY” the “soluble fraction (log2)” value was -0.771. With “HMLPEGIENGDVLTRTDALDYRKWLVTGNQKRIFASTASFYGENFNYSEVKAVSDRVLDAIPDGEPV” the “soluble fraction (log2)” value was -0.549. With “HMTEDELLAQFEEILDGYVGKPGGLIPALQTAQKLFGYLPKRVLQLISMKLDIPYSEVTGVVSFYSFFTTV” the “soluble fraction (log2)” value was -1.12. With “HMVDQAFQTQLKNIQARTGKNLDELYAFIRASGLVKHGEIRDLAKRELSLGHGDANTLAKFYLESLAAAA” the “soluble fraction (log2)” value was -0.103. For “HMHSIFPVIRSTSFPTKSNDGELFITSDHTAETRIYYALDLGNTYRLIDQKVMNEINLTESLVKETARF”, the “soluble fraction (log2)” value was -1.63. With “HMRDAKSQLQEALQKSGRLPEYELVSVEGPPHAPVFTYRVRIDGAVVGEGQGASKQAAQQAAAQSALKSG” the “soluble fraction (log2)” value was 0.22. In the case of “HMTVVHRQVHLQPDQGAFRAALYSHKAVLSEQTDDQGAINLEIRLPESDFLRLLNSSGLKLQDLVP”, the “soluble fraction (log2)” value was -0.512. With “HMGYLNDRQRLIKDFITENQPLKVSDLVKQFPNIGLSTLKKDLQYLRGEQVLTMIGKGKGSVYVLNKK” the “soluble fraction (log2)” value was ≥ 0.43. With “HMAIDLSLIPGNLLRELHGAVEDGDMYRIRELIRSISAVDEKVGKELLLLAERYDYERLLELVND” the “soluble fraction (log2)” value was -1.03. With “HMKTKILAPIPGSIMVVDVKVGDTVKVGDRLVQLEAMKMENNITSEKAGKITAVLVTAGQKVLQNEVMIEL” the “soluble fraction (log2)” value was -0.52. For “HMGVEVEVPNVKGKLVADAEYELGLAQLTPVRTDSAYNRNLPPGTVLEQLPASGSHVKEGREIYLTINST”, the “soluble fraction (log2)” value was 0.155. With “HMSLAATLSPREIDTVRLIAVGSSNKEIARQLGIAETTVKIHVQHILRKLNLTSRVQVAVFANAEGII” the “soluble fraction (log2)” value was -0.407. For “HMKDNIRSILEDIPNIGPGRRRALLKHFGSIEAIRRASLEDLIKVDGMNRNAALSIMEYFGM”, the “soluble fraction (log2)” value was -0.24. In the case of “HMSTFKSYRGKITASSGVNIRTGAGTNYNKNGALTYNSVVTIVDEKKVSGTTWGKLADGRGWISLDYLKK”, the “soluble fraction (log2)” value was 0.105. For “HMKNIINLVIDGELHGKRIDAVIAQKNDSLSRTRIKNLVINGNLSINDEIVSDPSKKIYKDDKVSLTIPLP”, the “soluble fraction (log2)” value was -0.085. For “HMVNKQERTYTILRDRIHSGSFAPLERLNIDALARELGVSPIPVREALRRLEAEGWVRFTPNVGAVVSP”, the “soluble fraction (log2)” value was 0.308. With “HMLNDMYAVMEIRGQGGELIAKLINQDGSPFYVKKGTTLQSGHVIDEITTTYVRAEKAGAKDYLYF” the “soluble fraction (log2)” value was -1.65. With “HMYIVVPDLSKKDINEVANILAAQSLRFQVIDSANFRSDFPKNAVISQKPLAGSEVKVNKKIYLQLNPS” the “soluble fraction (log2)” value was -0.608. With “HMATTPEETILEYINKNNRISKQEIADLMGITRDGVSYHIKKLRKNGLLEWIGSPSNGHWEIIE” the “soluble fraction (log2)” value was -0.52. With “HMSDKNVYGKYKNVFLSDEEFSELKQFYPNDWSDRIETLSEGIELKGYKYKNYLLAIKKWAEYEGQKAD” the “soluble fraction (log2)” value was -0.77. In the case of “HMIMQTTSDRINQRMRDLGLQHKDLVAATGASKGTVTNWINGVNNPTGKRLVQLAQALKTTSSWLLTGN”, the “soluble fraction (log2)” value was -0.0389. For “HMEALTPREREVLTLMGQGRSNAEIATLLSIAPRTAKVHVQNILSKLGATNRTEAVSLAVRQGLIS”, the “soluble fraction (log2)” value was -0.18. In the case of “HMEVPVQYIKFKIPENHFWAKKKVADIILPPETLLVLLQRGSDKMIPDGETVLLPEDTLVLIAKAPG”, the “soluble fraction (log2)” value was -0.783. For “HMYDPVNEIGRVLKKIRQERSLTLDNVAEITGVSKTMLGQIERGVSVPTISVLWKIAKGLQVSLSTLLNE”, the “soluble fraction (log2)” value was 0.36. In the case of “HMSAVIGTATVTTSSGSLNLRESASLYSRVIRTIPRGATVDVLSRDTSWSRVRYAGSEGYVLNQYLTFQT”, the “soluble fraction (log2)” value was ≥ 0.43. In the case of “HMYHPGFEALREVARQGSFIKAARALGISGPAVSKQIKSLEARLNLVLLHRTTRAVTLTEAGQRLTEILD”, the “soluble fraction (log2)” value was -0.437. With “HMSTSERLKQVMEVKGFNLKTFSEQADIPYRTLQNYILTNREPSAESLAKLHSQLGINLNWLMSGKGEMF” the “soluble fraction (log2)” value was 0.109. With “HMAQLPADLSKVKSSQISDQQLTQIAQQAKNSGQSEQAVLQELKQRGLPDTEIQALGARISGLMQ” the “soluble fraction (log2)” value was 0.404. For “HMKNVADEVFEKMLNMIIEGDWKKGEMIPSENELREAFSVSRSTVRQAVQRLSALGIVRSRQGKGTYVEQV”, the “soluble fraction (log2)” value was 0.0309. With “HMEELGKVRPELDGNEIAKVLGITPGPVLGRAYTYLLSVRLDEGPIGPDVARERLLAWWAEQPES” the “soluble fraction (log2)” value was -2.01. For “HMNNSDIDITVGKNSISINNPNRTNIIIYSSNGMLIDSSKNASYKRNLPSGIYIVKSGSSTHKVIV”, the “soluble fraction (log2)” value was ≥ 0.43. With “HMAEELELFHRLISVTGVGPKGALGFLSQLKPQEIILAILSDDVKTLSKAPGVGRKTAQRVILELKDKF” the “soluble fraction (log2)” value was -0.828. For “HMISKYLRIESDILSAIREGRLKPGDKLPGQSEMRRIYNVSAITVRKAFTDLINDGYLVGVRGSGTYVAKR”, the “soluble fraction (log2)” value was 0.117. With “HMDLSYPFTTVTTDNVNMRRSASSSSVVLERIDKGDSITVLGTSGNYYKVSYNDRTGYVLKQYVDVSAATT” the “soluble fraction (log2)” value was -0.0312. For “HMNTGLSEREHEIAQLVLQGRTYAEIGAELFISPRTAEHHIGQIRRRLAATSRSDLLAKLRVAMNTTEGAG”, the “soluble fraction (log2)” value was -0.567. In the case of “HMVVTMEKIVVNDGGIRIDTYLADKLNISRSKVAKMLENNILVNNVKVKPSYKVTNNDIIEVEEYV”, the “soluble fraction (log2)” value was 0.402. In the case of “HMGAIVTVPDLAGRPQPGAEAELRRSGLVPKVRTSYSLTGTRGTVISQTPPAGSRVREGAEVEVVVSRGLN”, the “soluble fraction (log2)” value was 0.0493. In the case of “HMSSEMATLRSIVDNKQAEKVHGMMVDMFTASAMVQVYDKVNDENQAKMREMLKTQKGFQRMADFALSKI”, the “soluble fraction (log2)” value was -0.535. In the case of “HMWTKKELWNAIAKLPKKQRTVVMMRIAQNLPYKDISEITGMSIGSAKVNYHHAVNSLKQWLS”, the “soluble fraction (log2)” value was 0.22. For “HMEPPPSYSALLKQISSGKVKELQLVPARREVIVTYPDGRSATVAILANDQQILRTAEAAGTPLLVK”, the “soluble fraction (log2)” value was 0.326. With “HMYGQEVKVLGLFGDRAFIKVDEKSAVIRIGQSHQNVQLKSISNQKAILLVDNKDIALGLGDSYQSA” the “soluble fraction (log2)” value was -0.397. With “HMVPSSHNIAQKVKQIKINDLWLDVRERYIYLKNLYLSHPLEKDHPSFIVYVEAVNQIYNQYF” the “soluble fraction (log2)” value was 0.0743. In the case of “HMKAETILAIPENQPERLFPNNEDEARKIYRDLAREWHTDRNKSPKAQDVFSHLSKLYDIVIDRIKNKTWT”, the “soluble fraction (log2)” value was -0.0463. In the case of “HMSTTSYTQFMEDAKAGKIARVDIKGREITVTPTEGSRYVITSPGDLWMVDDLRKDGVQVYGPP”, the “soluble fraction (log2)” value was 0.137. For “HMTPPAQQPHEGLPTDETATDAKTLVQKSRWWLEEEQRQREAGNTAYAERIRLALIQLLYRAERA”, the “soluble fraction (log2)” value was 0.0525. For “HMEDPPISQEQRQALFKMAHDHLGKDEGNKAILTLIQSHGLNSTTGMKVSTYNTIMEELVSTIQSLAA”, the “soluble fraction (log2)” value was 0.0682. With “HMISKWGELVDLAVQLDIIQKSGSWFSMGDERIGQGANSVKDYLIANPDIAEKVEAEVRENLWKLN” the “soluble fraction (log2)” value was -0.351. With “HMANSANARKSLVSKLIAGGKIASQSDLVKALKKQGIVVTQGTASRDLEDIGAIRVRNSEGEIVYALT” the “soluble fraction (log2)” value was 0.108. In the case of “HMSSSYMVRITTSVLNVRKGPGTNYGITTKVKKGEVYTIVAEEKNGNTTWGKLKSGTGYISLGYTER”, the “soluble fraction (log2)” value was -0.145. In the case of “HMATARPPPPPESRVEVLFDGRWYAGTVVGGALDEHRATVFFDADRLSQVINFAETGIRVLGT”, the “soluble fraction (log2)” value was -0.575. With “HMEESTYQWNNFVRDFYASRVSAQYTNKLKVAAILWHHVKNTPQSKIYHDNLVSKYAEEINYFK” the “soluble fraction (log2)” value was -0.387. With “HMSKQLGFKIKTARRKLNISQGDLSKKLEISPSYLNLIESGKRKVSTDLLMKASEILNLDLKKL” the “soluble fraction (log2)” value was ≥ 0.43. With “HMAAIPATVDEETYRRLKPMLKQYGILYHEFKPLRSGKKGAVELIFMEKDLALVQELLSRLKKEK” the “soluble fraction (log2)” value was -0.0159. With “HMSEMDNMEWVREQYFQNMIYEIGEWVRDKKTGIVGEVVKRGTNYVTVVQEDFSLHKIWLEDLETTEK” the “soluble fraction (log2)” value was -0.966. For “HMQGPDPYAVLGIDRHADERAIKRAYRKLISEHHPDRLGDLPEDMRKRAESRASEINAAYDRIKEARGF”, the “soluble fraction (log2)” value was 0.13. In the case of “HMDVIGLEAAKSAAVKDAGISSPTFTKATLDRDDGRSLYEIEFISGSTKYEYDIDALTGSVLSKKTRALS”, the “soluble fraction (log2)” value was ≥ 0.43. For “HMESPSGGHRIALAFDQGTARAVDATYARLTGAGYEGRTKPWDAPWGQRYATVFDPDGNSVDLFAALE”, the “soluble fraction (log2)” value was -0.544. With “HMESGLPLPRFVSLGADEVNLRTGPGLRYPVAWVFVRKALPVEIVAEFEQWRRVRDFEGAEGWVHKAML” the “soluble fraction (log2)” value was -0.527. For “HMEEQIEVPVQINGKVRSKLTVAPETDEKQIEALALADPKVQQQLEGKRVLKVIVAQKRLVNIVA”, the “soluble fraction (log2)” value was -0.035. For “HMTVKKLTINEDNSGRRIDNYLLSIFNSLPRSKIYNIIRKGEVRVNSSRIKPNYRLEQGDLVRIPPNLEFT”, the “soluble fraction (log2)” value was 0.0853. With “HMIPRGFSRYYILELLQKKPHTGKEIIDNAIKESGGRWNPSPGLIYPLLGRLLDENLIEETNDGKYK” the “soluble fraction (log2)” value was -0.631. In the case of “HMLGFELVGIRGNNPESTIIILERDDYRLVEQGQNINSSVIFSHIDGSRAYFFDGQTYTFLDI”, the “soluble fraction (log2)” value was -2.77. For “HMQNSMTTTPDVVGKTGTFAEQMLKAANLNVQFAGDSSGKVVAQDVEAGTSAAYGTIITLTMDS”, the “soluble fraction (log2)” value was 0.25. With “HMKEQYTELDWDKVQVNDKVMIKDLNQQVTILSLPDKNNALYIQMGMIKTKVKKEKLAVYNPQLA” the “soluble fraction (log2)” value was -0.103. For “HMAKSKYETHVLPNLDKIIKWAKAGATAKEIAANLHIAYSTFRKYLDEGQEGDERYAALSAAFAQA”, the “soluble fraction (log2)” value was 0.22. For “HMSRAMFEMHADWQPTDSIRGLLGRAGLPTDIAKLDQSRIGDFVNHWFGKPDRNTADSWNGLLVGWLKRTQ”, the “soluble fraction (log2)” value was -0.787. With “HMSLTEESAKSLIGLTENEAVKVAAERGWTVRVAMRDGEAFMLTQDYSENRVNLTVMKTLVTAVTI” the “soluble fraction (log2)” value was -0.0567. For “HMQLSMLPYGFARRHGVLLVEQDEQPTLIHRAGITATVIAEVQRVAGQIDAWRLVDDARFDQQLAEVYRD”, the “soluble fraction (log2)” value was -1.41. In the case of “HMGTVSSGSSSTDTPFSLGEIVRHKVFGEGVVLSIEGQGDASRIQINFNTAGTKWLVTAYADLEK”, the “soluble fraction (log2)” value was -1.28. With “HMLSTRERMSSLMAQLQVQQFMPFHRLFTISEGRMGVIVTFLAMMELVKENLIKLIQAQEYGPIHVSLG” the “soluble fraction (log2)” value was 0.22. For “HMARRTPPPTVSELNALLRVAAPHIQRVILLGIYTGARIGPSELFSLKWDDVDLTRGVIGIRL”, the “soluble fraction (log2)” value was -0.39. For “HMTLPQEPTVLPRPLRVGDTVHIRTLDKDAEVLALPDARGMVAVRAGIINTKVKLTDLTLVEEK”, the “soluble fraction (log2)” value was ≥ 0.43.
